The Kd is the concentration at which binding is half-saturated. The low end stands for higher affinity, the high end for lower affinity.

In paper PMC4643373 one finds Kd data, which are given here for one molecule.

The series addresses FMRP isoform 1 (FMRP ISO1) (human (title of cited purification …, UniProt Q06787 1-632)). The experiment in a line: fluorescence spectroscopy.

In the case of GGGUACGGGAGGGUAAGGCUGUGGGUCGCGUG (structured_RNA, 2-aminopurine replacing A5) [NR2B 2AP mRNA], the Kd was 370 nM.
